Results: patent publication US6071733

How the values were obtained:
[1] = target: polypeptide GERC3, subunit of the heptaprenyl diphosphate synthetase of Bacillus subtilis (ATCC 6633) (Bacillus subtilis (ATCC 6633)) (UniProt P31114)
[2] = target: polypeptide Hep2, subunit of the thermoresistant heptaprenyl diphosphate synthetase of Bacillus stearothermophilus (ATCC 10149) (Bacillus stearothermophilus (ATCC 10149))
[3] = target: polypeptide Hex3, polypeptide of subunit (B) of the hexaprenyl diphosphate synthetase of Micrococcus luteus B-P 26 (Micrococcus luteus B-P 26)
[4] = target: Hex2, protein encoded by hex2 of Micrococcus luteus B-P 26 (Micrococcus luteus B-P 26)

Row | Activity (dpm), HepPS activity of proteins mixed in equal amounts [1] [dpm] | Activity (dpm), HepPS activity of proteins mixed in equal amounts [2] [dpm] | Activity (dpm), prenyl diphosphate (HexPP) synthetase activity of mixed crude homogenates [3] [dpm] | Activity (dpm), prenyl diphosphate (HexPP) synthetase activity of mixed crude homogenates [4] [dpm] | Substance
1 | 136 | 7920 |  |  | polypeptide GERC1, subunit of the heptaprenyl diphosphate synthetase of Bacillus subtilis (ATCC 6633) (enzyme)
2 |  | 0 |  |  | polypeptide Hep1, subunit of the heptaprenyl diphosphate synthetase of Bacillus stearothermophilus (ATCC 10149) (from UniProt P55784) (enzyme)
3 |  |  | 2920 | 0 | polypeptide Hex1, polypeptide of subunit (A) of the hexaprenyl diphosphate synthetase of Micrococcus luteus B-P 26 (enzyme)
4 |  |  | 0 |  | Hex2, protein encoded by hex2 of Micrococcus luteus B-P 26
